Consider five molecules from publication PMC11134608, “UBR5 forms ligand-dependent complexes on chromatin to regulate nuclear hormone receptor stability” (Molecular cell, 2023).

Primed or numbered codes have the meaning given here. No end group written: not given here. fluorescein″ = fluorescein (FAM) label on the N-terminus (fluorescent label)

B1: Fluorescein-labelled NCOA1 peptide residues 687–698 (Flc-ARHKILHRLLQEGS) (peptide)
peptide: {fluorescein″}-ARHKILHRLLQEGS
notes: NCOA1 LxxLL peptide, printed as residues 687-698; also called Fluorescein NCOA1 peptide aa687-698; source: synthetic peptide; bought: Peptides & Elephants
B2: His-tagged ER ligand-binding domain (aa301-552) (domain or fragment, UniProt P03372 301-552, looked up)
chain: SKKNSLALSLTADQMVSALLDAEPPILYSEYDPTRPFSEASMMGLLTNLADRELVHMINWAKRVPGFVDLTLHDQVHLLECAWLEILMIGLVWRSMEHPGKLLFAPNLLLDRNQGKCVEGMVEIFDMLLATSSRFRMMNLQGEEFVCLKSIILLNSGVYTFLSSTLKSLEEKDHIHRVLDKITDTLIHLMAKAGLTLQQQHQRLAQLLLILSHIRHMSNKGMEHLYSMKCKNVVPLYDLLLEMLDAHRLHAP
notes: also called estrogen receptor; source: E. coli BL21-CodonPlus(DE3)-RIL, purified (HisTrap, SEC); not shown: His6, N-terminal, kept
B3: VDR aa118-427 (recombinant) (domain or fragment, UniProt P11473 118-427, looked up)
chain: DSLRPKLSEEQQRIIAILLDAHHKTYDPTYSDFCQFRPPVRVNDGGGSHPSRPNSRHTPSFSGDSSSSCSDHCITSSDMMDSSSFSNLDLSEEDSDDPSVTLELSQLSMLPHLADLVSYSIQKVIGFAKMIPGFRDLTSEDQIVLLKSSAIEVIMLRSNESFTMDDMSWTCGNQDYKYRVSDVTKAGHSLELIEPLIKFQVGLKKLNLHEEEHVLLMAICIVSPDRPGVQDAALIEAIQDRLSNTLQTYIRCRHPPPGSHLLYAKMIQKLADLRSLNEEHSKQYRCLSFQPECSMKLTPLVLEVFGNEIS
notes: also called vitamin D receptor; source: E. coli BL21-CodonPlus(DE3)-RIL, purified (HisTrap, SEC)
B4: His-tagged RARA ligand-binding domain (aa175-421) (domain or fragment, UniProt P10276 175-421, looked up)
chain: SESYTLTPEVGELIEKVRKAHQETFPALCQLGKYTTNNSSEQRVSLDIDLWDKFSELSTKCIIKTVEFAKQLPGFTTLTIADQITLLKAACLDILILRICTRYTPEQDTMTFSDGLTLNRTQMHNAGFGPLTDLVFAFANQLLPLEMDDAETGLLSAICLICGDRQDLEQPDRVDMLQEPLLEALKVYVRKRRPSRPHMFPKMLMKITDLRSISAKGAERVITLKMEIPGSMPPLIQEMLENSEGLD
notes: no cleavage of the His6-Smt3 fusion is described, and the protein is called His-tagged in the pull-downs, so Smt3 was probably still on; also called His-RARA; RARA LBD; source: E. coli BL21-CodonPlus(DE3)-RIL, purified (HisTrap, SEC); not shown: His6, N-terminal, kept
B5: RARA/RXRA heterodimer (ligand-binding domains) (complex)
chain 1: B4 chain
chain 2: SSANEDMPVERILEAELAVEPKTETYVEANMGLNPSSPNDPVTNICQAADKQLFTLVEWAKRIPHFSELPLDDQVILLRAGWNELLIASFSHRSIAVKDGILLATGLHVHRNSAHSAGVGAIFDRVLTELVSKMRDMQMDKTELGCLRAIVLFNPDSKGLSNPAEVEALREKVYASLEAYCKHKYPEQPGRFAKLLLRLPALRSIGLKCLEHLFFFKLIGDTPIDTFLMEMLEAPHQMT
notes: LBD constructs are stated for the negative stain EM; also called RARA/RXRA^LBD; RARA/RXRA LBD heterodimer; source: E. coli BL21-CodonPlus(DE3)-RIL, purified (HisTrap, SEC); not shown: His6, N-terminal, kept

Assay [1] addresses B5. As to the kind of experiment: fluorescence polarisation; competitive reverse titration: tracer Flc-NCOA1 peptide 10 nM and RARA/RXRA 0.5 μM, unlabeled competitor peptides 0–85 μM; 20 mM HEPES pH 7.4, 110 mM NaCl, 500 μM TCEP, 1% glycerol, 0.1% pluronic acid, with or without 100 μM all-trans-retinoic acid; room temperature. To be noted: both partners purified. A general note: In fluorescence polarisation assays a small probe gives low polarisation when free and higher when bound to something large.

Assay [2] concerns the target T1, Full-length human FLAG-UBR5 (human, UniProt O95071 1-2799).
T1 construct: UBR5 (ubiquitin protein ligase E3 component n-recognin 5), human, full length; Tetramer by SEC-MALS and cryo-EM; also called ubiquitin protein ligase E3 component n-recognin 5; UBR5 tetramer, WT; source: HEK293F (Expi293 system), transient expression, purified (FLAG M2, Mono Q, Superose 6); not shown: FLAG, N-terminal, kept
As to the kind of experiment: pull-down; FLAG-UBR5 (15 pmol) immobilised on FLAG M2 beads, 150 pmol nuclear receptor protein added with 50 μM agonist ligand (ATRA, 9-cis RA, both, estradiol or calcitriol); 25 mM HEPES pH 7.4, 125 mM NaCl, 0.05% TWEEN-20; 4°C; eluted with 3xFLAG peptide, western blot. As to conditions: both partners purified. A general note: A western blot detects proteins with antibodies after separation by electrophoresis.

T1 sequence (O95071 whole entry): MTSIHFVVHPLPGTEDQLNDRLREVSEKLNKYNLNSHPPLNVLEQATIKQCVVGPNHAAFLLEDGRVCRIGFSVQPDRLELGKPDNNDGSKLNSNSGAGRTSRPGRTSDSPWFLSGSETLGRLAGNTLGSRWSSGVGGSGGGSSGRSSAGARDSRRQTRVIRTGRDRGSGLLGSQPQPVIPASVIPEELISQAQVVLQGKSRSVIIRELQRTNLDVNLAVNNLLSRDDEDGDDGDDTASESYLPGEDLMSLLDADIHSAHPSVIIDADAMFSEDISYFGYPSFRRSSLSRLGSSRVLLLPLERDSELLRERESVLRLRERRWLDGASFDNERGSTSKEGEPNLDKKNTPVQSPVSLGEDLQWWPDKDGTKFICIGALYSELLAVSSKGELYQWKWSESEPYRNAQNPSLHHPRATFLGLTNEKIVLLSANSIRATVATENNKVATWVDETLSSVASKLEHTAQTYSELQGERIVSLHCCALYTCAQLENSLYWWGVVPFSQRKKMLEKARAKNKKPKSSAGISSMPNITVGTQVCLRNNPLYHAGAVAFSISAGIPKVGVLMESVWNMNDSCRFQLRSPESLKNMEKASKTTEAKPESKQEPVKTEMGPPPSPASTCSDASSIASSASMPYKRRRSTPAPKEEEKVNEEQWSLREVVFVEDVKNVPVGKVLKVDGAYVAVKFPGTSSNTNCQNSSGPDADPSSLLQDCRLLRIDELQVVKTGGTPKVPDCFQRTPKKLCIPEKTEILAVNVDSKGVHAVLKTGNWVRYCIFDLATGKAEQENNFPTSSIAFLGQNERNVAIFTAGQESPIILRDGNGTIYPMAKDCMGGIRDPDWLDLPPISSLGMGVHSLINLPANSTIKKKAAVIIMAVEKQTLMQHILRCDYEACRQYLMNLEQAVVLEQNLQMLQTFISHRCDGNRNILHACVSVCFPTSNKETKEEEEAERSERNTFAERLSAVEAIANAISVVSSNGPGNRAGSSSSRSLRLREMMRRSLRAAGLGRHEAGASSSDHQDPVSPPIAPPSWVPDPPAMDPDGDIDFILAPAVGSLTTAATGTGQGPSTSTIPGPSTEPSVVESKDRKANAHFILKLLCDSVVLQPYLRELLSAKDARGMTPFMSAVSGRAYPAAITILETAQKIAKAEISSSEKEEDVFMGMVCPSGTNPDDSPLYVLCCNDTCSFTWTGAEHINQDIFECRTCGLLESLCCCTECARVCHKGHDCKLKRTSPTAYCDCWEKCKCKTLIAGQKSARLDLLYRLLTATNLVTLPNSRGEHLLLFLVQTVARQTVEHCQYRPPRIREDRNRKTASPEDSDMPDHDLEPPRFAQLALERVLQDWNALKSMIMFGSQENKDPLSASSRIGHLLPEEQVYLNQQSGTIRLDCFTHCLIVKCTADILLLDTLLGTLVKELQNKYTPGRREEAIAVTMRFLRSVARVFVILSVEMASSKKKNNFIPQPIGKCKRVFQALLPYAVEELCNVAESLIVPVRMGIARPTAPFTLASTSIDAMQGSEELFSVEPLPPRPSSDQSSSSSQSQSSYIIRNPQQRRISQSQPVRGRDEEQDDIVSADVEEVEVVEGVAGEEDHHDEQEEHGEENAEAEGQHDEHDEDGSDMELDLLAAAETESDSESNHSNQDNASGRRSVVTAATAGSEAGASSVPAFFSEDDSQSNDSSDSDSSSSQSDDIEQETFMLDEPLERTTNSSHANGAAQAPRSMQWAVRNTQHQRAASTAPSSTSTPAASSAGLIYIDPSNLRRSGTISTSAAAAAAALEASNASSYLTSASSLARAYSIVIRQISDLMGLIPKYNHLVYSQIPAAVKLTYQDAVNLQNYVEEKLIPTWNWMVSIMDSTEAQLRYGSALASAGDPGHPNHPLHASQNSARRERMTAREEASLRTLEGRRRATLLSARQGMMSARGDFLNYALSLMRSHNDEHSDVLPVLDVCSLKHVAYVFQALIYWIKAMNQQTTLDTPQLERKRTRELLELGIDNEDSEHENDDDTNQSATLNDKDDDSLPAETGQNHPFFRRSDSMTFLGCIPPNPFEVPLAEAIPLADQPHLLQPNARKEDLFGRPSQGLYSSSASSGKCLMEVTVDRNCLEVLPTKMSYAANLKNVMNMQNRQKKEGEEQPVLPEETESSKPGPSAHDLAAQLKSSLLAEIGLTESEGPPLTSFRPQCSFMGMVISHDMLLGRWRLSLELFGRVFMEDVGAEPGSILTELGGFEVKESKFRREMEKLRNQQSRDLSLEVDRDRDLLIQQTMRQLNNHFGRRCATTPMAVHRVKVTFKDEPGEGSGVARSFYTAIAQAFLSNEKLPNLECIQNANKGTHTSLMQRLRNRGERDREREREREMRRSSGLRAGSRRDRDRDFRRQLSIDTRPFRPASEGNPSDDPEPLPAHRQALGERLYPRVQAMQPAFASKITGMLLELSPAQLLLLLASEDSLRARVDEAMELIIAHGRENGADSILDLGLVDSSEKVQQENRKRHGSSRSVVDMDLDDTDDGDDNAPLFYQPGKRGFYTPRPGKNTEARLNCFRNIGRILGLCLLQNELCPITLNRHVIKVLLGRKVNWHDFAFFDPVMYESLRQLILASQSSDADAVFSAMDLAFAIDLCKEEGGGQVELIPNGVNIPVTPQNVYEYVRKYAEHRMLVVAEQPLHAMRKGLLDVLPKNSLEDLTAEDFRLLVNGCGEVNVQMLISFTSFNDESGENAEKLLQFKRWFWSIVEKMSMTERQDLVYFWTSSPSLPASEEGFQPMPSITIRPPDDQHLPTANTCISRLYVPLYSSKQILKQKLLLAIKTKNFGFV

As for B1, the binding result in assay [1] was “binds”. Turning to B2, the binding result in assay [2] is recorded as “binds”. Take B3: the binding result in assay [2] is reported as “binds”.

As to B4, the binding result in assay [2] is recorded as “binds”. The same measure, in the same setting: for B5 the value was “binds”.
